Biological target: holo-PhuS H209A (Pseudomonas aeruginosa PAO1, UniProt O68880 1-354, H209A)
Test: EMSA

B1: prrF1-50 (5'-biotin) (dsDNA)
DNA 1: AGCAGAAAAGTTTGGCGAAAGCGTTTGACATGGAAATGAGAATCATTATT
DNA 2: AATAATGATTCTCATTTCCATGTCAAACGCTTTCGCCAAACTTTTCTGCT
binding result: binds

Reference: article PMC12033910
